Reference: patent publication US20260132208A1 (DOMAIN THERAPEUTICS, published 2026)
Where “and” joins values, the source holds several entries; their conditions need not be identical. Equal values may be shown once.

How the values were obtained:
[1] = biological target: T1, human CCR8 (human, UniProt P51685 1-355); test: cell-based or functional assay
[2] = biological target: T1, human CCR8; test: cell-based or functional assay; remark: listed apart in the source
[3] = biological target: T1, human CCR8; test: cell-based or functional assay; remark: listed apart in the source
[4] = biological target: T1, human CCR8; test: cell-based or functional assay; remark: listed apart in the source
[5] = biological target: T2, pm3 (Y17 sulfated; Y15 and Y16 not sulfated); test: ELISA on coated peptide [cont.]
T2 construct: also called sulfated CCR8 N-terminal peptide pm3
T2 sequence (peptide, as listed by the source): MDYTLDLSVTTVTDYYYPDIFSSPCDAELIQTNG
Description: (§1) The specific binding properties of antibodies were evaluated by ELISA with coated CCR8 related peptides (500 ng/ml) in carbonate/bicarbonate buffer. Different peptides were used as described in Table 1 (see Example 1). Each anti-CCR8 mAb was tested at 1 μg/mL then diluted at 1/10. After an incubation at room temperature during 90 min, unbound mAbs were removed by washings. […] After washings, 3,3′,5,5′-tetramethylbenzidine (TMB) (Interchim, Montluçon, France) was added for 15 min. Then the optical density (OD) was determined by using a multiplate reader (Tecan, Lyon, France) and correlated with mAb reactivity on the panel of coated peptides.

[6] = biological target: T3, pm5 (Y15 and Y17 sulfated; Y16 not sulfated); test: ELISA on coated peptide [cont.]
T3 construct: also called sulfated CCR8 N-terminal peptide pm5
T3 sequence (peptide, as listed by the source): as above
Description: as §1

[7] = biological target: T4, pm6 (Y16 and Y17 sulfated; Y15 not sulfated); test: ELISA on coated peptide [cont.]
T4 construct: also called sulfated CCR8 N-terminal peptide pm6
T4 sequence (peptide, as listed by the source): as above
Description: as §1

[8] = biological target: T5, pm8 (Y15, Y16 and Y17 sulfated); test: ELISA on coated peptide [cont.]
T5 construct: also called sulfated CCR8 N-terminal peptide pm8
T5 sequence (peptide, as listed by the source): as above
Description: as §1

[9] = biological target: T1, human CCR8; test: flow cytometry, hCCR8-transfected CHO-K1 cells
Description: Briefly, 1.10⁵ cells per well in a 96 well plate were incubated with a dilution of unconjugated anti-CCR8 mAb at 10 μg/mL then diluted at 1/3.33, 4 dilution points (during 30 min at 4° C.). In human activated T cells model, prior to mAb incubation, cells were first incubated with 200 nM of hCCL1 (R&D Systems, Minneapolis, MN, USA) or buffer PBS (Invitrogen by Thermofisher Scientific, Illkirch-Graffenstaden, France) supplemented by 2% Fetal Bovine Serum (Invitrogen by Thermofisher Scientific, Illkirch-Graffenstaden, France) and 2 mM EDTA (Invitrogen by Thermofisher Scientific, Illkirch-Graffenstaden, France) during 1 hour at 4° C. To determine EC50 value, 8 concentrations of anti-CCR8 mAb were tested. Unbound antibodies were washed away with PBS (Invitrogen by Thermofisher Scientific, Illkirch-Graffenstaden, France) supplemented by 2% Fetal Bovine Serum (Invitrogen by Thermofisher Scientific, Illkirch-Graffenstaden, France) and 2 mM EDTA (Invitrogen by Thermofisher Scientific, Illkirch-Graffenstaden, France). Subsequently, cells are centrifuged (5 min at 400 g) and bound antibody is detected with F(ab′)2-Goat anti-Mouse IgG (H+L) Cross-Adsorbed Secondary Antibody, Alexa Fluor 488 (dilution 1/500) (Invitrogen by Thermofisher Scientific, Illkirch-Graffenstaden, France) or with F(ab′)₂-Goat anti-Human IgG Fc Secondary Antibody, PE (Invitrogen by Thermofisher Scientific, Illkirch-Graffenstaden, France) (dilution 1/1000) at 4° C. for 30 min. Detection reagent is washed away and cells are centrifuged (5 min at 400 g) and resuspended in 30 μL PBS. Bound detection antibody is quantified on a MacsQuant16 (Miltenyi, Gladbach, Germany) (B1 or B2 channel, 5000 events per acquisition). During the experiment, the respective isotype mAb controls (mouse IgG1, mouse IgG2a, mouse IgG2b, mouse IgG3 or human IgG1) (Biolegend, Amsterdam, The Netherlands) are included to exclude any unspecific binding events. EC50 values were determined via nonlinear fit “log (agonist) vs.response—Variable slope (four parameters)” function of Graphpad prism. EC50 values were not constantly determined in the same experiments.

[10] = biological target: T1, human CCR8; test: flow cytometry, inhibition of hCCL1-AF647 (10 nM) binding to hCCR8-CHO cells
Description: The hCCR8 transfected CHO cell line was dispatched at a density of 1.105 per well in a 96-well plate. Cells were incubated for 30 min at 4° C. with or without anti-CCR8 mAb tested at 10 μg/mL then diluted at 1/3. Unbound antibodies were washed away with PBS (Gibco, Villebon-sur-yvette, France) supplemented by 2% Fetal Bovine Serum (Invitrogen by Thermofisher Scientific, Illkirch-Graffenstaden, France) and 2 mM EDTA. […] After washing unbound ligands, CCL1 bound detection is quantified on a MacsQuant16 (Miltenyi, Gladbach, Germany) (R1 channel, 5 000 events per acquisition).
For IC₅₀ determination, a concentration response curve is performed using 8 concentrations of mAb. Curves are fitted and IC₅₀ of CCL1 binding blocking activity is calculated using the sigmoidal dose-response (variable slope) model on GraphPad Prism 9 (GraphPad Software, San Diego, CA, USA).

| Binder | IC50 of CCL1-induced hCCR8 Gi2 signaling (BRET, HEK-293) [1] | residual hCCL1 (100 nM) Gi2 response, protocol #2, mAb 0.08 µg/mL [2] [%] | residual hCCL1 (100 nM) Gi2 response, protocol #2, mAb 0.4 µg/mL [2] [%] | residual hCCL1 (100 nM) Gi2 response, protocol #2, mAb 10 µg/mL [2] [%] | residual hCCL1 (100 nM) Gi2 response, protocol #3, mAb 0.05 µg/mL [2] [%] | residual hCCL1 (100 nM) Gi2 response, protocol #3, mAb 0.5 µg/mL [2] [%] | residual hCCL1 (100 nM) Gi2 response, protocol #3, mAb 5 µg/mL [2] [%] | extrapolated top plateau of hCCL1 curve with 5 µg/mL mAb, protocol #3 [3] | IC50 of CCL1-induced hCCR8 Gi2 signaling (BRET), pH 6.5 [4] | IC50 of CCL1-induced hCCR8 Gi2 signaling (BRET), pH 7.4 [4] | binding result [5] | binding result [6] | binding result [7] | binding result [8] | % positive cells [9] [%] | MFI fold change to isotype ctrl [9] [fold] | IC50 [10] |
| --- | --- | --- | --- | --- | --- | --- | --- | --- | --- | --- | --- | --- | --- | --- | --- | --- | --- |
| anti-CCR8 mAb 1-2 (antibody, V domains shown, Murine hybridoma mAb) VH: EVQLVESGGGLVQPKGSLKLSCAASGFTFNTYAMNWVRQAPGKGLEWVARIRSKSNNYATYYADSVKDRFTISRDDSQSMLYLQMNNLKTEDTAMYYCVRGREAYYRYDGGYYAMDYWGQGTSVTVSS VL: DIVMTQAAPSVPVTPGESVSISCRSSKSLLHSNGNTYLYWFLQRPGQSPQLLIYRMSNLASGVPDRFSGSGSGTAFTLRISRVEAEDVGVYYCMQHLEYPFTFGSGTKLEIK | 0.191 nM and 0.029 µg/mL | 60 | 36 | 19 | 74 | 68 | 48 | 640000 % of hCCL1 (100 nM) | 0.03 µg/ml and 0.198 nM | 0.031 µg/ml and 0.21 nM | binds | binds | binds | binds | 90.6 | 22.7 | 0.83 µg/mL and 5.55 nM |
| anti-CCR8 mAb 1-1 (antibody, V domains shown, Murine hybridoma mAb) VH: EVQLLESGGGLVQPKGSLKLSCAASGFTFNPYAMNWVRQAPGRGLEWVARIRSKSNNYATYYADSVKDRFTISRDDSQDMLYLQMNNLKTEDTAMYYCVRGREAYYRYDGDYYAMDYWGQGTSVTVSS VL: DIVMTQAAPSVPVTPGESVSISCRSSKSLLHSNGNTYLYWFLQRPGQSPQLLIYRMSNLASGVPDRFSGSGSGTAFTLRISRVEAEDVGVYYCMQHLEYPFTFGSGTKLEIK | 0.023 µg/mL and 0.153 nM | 81 | 69 | 44 | 77 | 57 | 49 | 760000 % of hCCL1 (100 nM) | 0.021 µg/ml and 0.143 nM | 0.024 µg/ml and 0.163 nM | binds | binds | binds | binds | 72.8 | 6.32 | 1.02 µg/mL and 6.83 nM |
| anti-CCR8 mAb 1-15 (antibody, V domains shown, Murine hybridoma mAb) VH: EVQLQQSGPELVKPGASVKISCKTSGYTFTEYTMHWVKQSHGKSLEWIGGINPNNGDTNYNQKFMGKATLTVDKSSSTAYMELRSLTSEDSAVYYCVRRLLRRGAMDYWGQGTSVTVSS VL: DIVLTQSPASLAVSLGQRATISCRASENVEYYGTSLMQWFQQKPGQPPKLLIYAASNVDSGVPARFSGSGSGTDFSLNIHPVEEDDIAMYFCQQSRKVPWTFGGGTKLDIK | 0.019 µg/mL and 0.129 nM | 99 | 102 | 95 | 102 | 97 | 67 | 135000 % of hCCL1 (100 nM) | – | – | binds | binds | binds | binds | 73.4 | 6.52 | 0.75 µg/mL and 5.01 nM |
| anti-CCR8 mAb 1-11 (antibody, V domains shown, Murine hybridoma mAb) VH: QVQLQQPGAELVKPGASVKMSCKATGYTFTGYNMHWVKQTPGQGLEWIGAISPGKGDTSYNLKFKGKATLTTDKSSSTAYMQLSSLTSADSAVYYCARSGGTPFAYWGQGTLVTVSA VL: DVVMTQTPLSLPVSLGDQASISCRSSQSLVHSNGDTYLYWYLQKPGQSPKLLIYKVSNRFSGVPDRFSGSGSGTDFTLKINRVEAEDLGVYFCSQSTHVPYTFGGGTKLEIK | 0.129 µg/mL and 0.86 nM | – | – | – | 102 | 98 | 84 | 2880 % of hCCL1 (100 nM) | – | – | binds | binds | binds | binds | 76.2 | 8.37 | 0.72 µg/mL and 4.82 nM |
